Where two headings read alike, the source gives them in different places.
Tests used:
[1] = system: Escherichia coli (O157:H7); test: Broth microdilution assay (MIC/MBC), planktonic bacteria; assay type: cell-based
Experimental: Antimicrobial activity of histone H5 against a variety of Gram-positive and Gram-negative planktonic bacteria was evaluated using a broth microdilution assay. The average minimum inhibitory concentration (MIC) and minimum bactericidal concentration (MBC) values (mean ± SD, n = 3) for six Gram-positive and four Gram-negative bacterial species are shown in Table 2. […] E. faecalis was the least susceptible to histone H5 inhibition, requiring over 32 µg/mL for complete bacterial growth inhibition which was the highest histone H5 concentration tested.
(§1) The bacterial strains tested in this study were Gram-positive bacteria (Bacillus cereus (ATCC 11778), methicillin-sensitive Staphylococcus aureus (ATCC 6538), methicillin-resistant Staphylococcus aureus (ATCC 29247), Listeria monocytogenes (ATCC 19112), Enterococcus faecalis (clinical isolate) and vancomycin-resistant Enterococcus (ATCC 51299)) and Gram-negative bacteria Escherichia coli K12 (ATCC 29425), Escherichia coli (O157:H7), Pseudomonas aeruginosa (ATCC 15442) and Salmonella typhimurium (ATCC 1535)). Bacterial colonies from glycerol stocks were plated on LB agar plates (BHI agar plates for L. monocytogenes) and incubated overnight at 37 °C. Single colonies from these plates were grown in 3 mL of LB broth (BHI broth for L. monocytogenes) overnight at 37 °C and shaken at 250 rpm. […] The bacterial suspension was pelleted at 3,000 × g, 4 °C for 10 minutes and washed with PBS (twice), and then adjusted to 10^5–10^6 CFUs/mL in PBS.
(§2) Supplementary Information
(§3) Broth microdilution assay
The protocol for this step of the project was based on established methods22. […] The microplate was incubated in the EON microplate reader overnight at 206 oscillations/min and at 37°C. […]
This assay is based on a previously described protocol22. The potential for hemolytic activity was assessed using rat red blood cells (RBCs) which were obtained from the University of Ottawa Animal Care Facility and in accordance with the University of Ottawa Animal Care

[2] = system: Listeria monocytogenes (ATCC 19112); conditions: for MIC: broth microdilution
Experimental: (§4) Antimicrobial activity of histone H5 against a variety of Gram-positive and Gram-negative planktonic bacteria was evaluated using a broth microdilution assay.
(§5) The antimicrobial activity of these peptides against Gram-positive and Gram-negative planktonic bacteria was evaluated using broth microdilution assays.
as §1, §2, §3
(§6) The protocol for this step of the project was based on established methods22. Histone H5 or the peptides were dissolved in sterile water, pH 7.4, serially two-fold diluted and aliquoted in a 1:1 (v/v) ratio with bacteria. Kanamycin or ampicillin served as a positive control for inhibition, and sterile water (pH 7.4) as a negative control for inhibition. The tubes were then incubated for 3 hours at 37°C an d shaken at 200 rpm. Next, 100 µL of each tube and 100µL of LB broth (BHI broth for L. monocytogenes) was plated in wells of a 96-well microplate. The microplate was incubated in the EON microplate reader overnight at 206 oscillations/min and at 37°C. During this period, the EON microplate spectrophotometer and Gen5 data analysis software (BioTek, Winooski, VT, USA) were used to monitor the growth of bacteria by measuring the optical density at 600 nm every 30 minutes for 18 hours. The lowest protein concentration without visible bacterial growth was designated as the minimum inhibitory concentration (MIC). Bacteria (10 µL) from the wells at MIC, MIC x 2 and MIC x 3 concentrations of H5 were plated on LB agar (BHI agar for L. monocytogenes) and incubated at 37°C for 18 hours. The lowest concentration of histone H5 without a single colony was designated as the minimum bactericidal concentration (MBC).

[3] = system: Pseudomonas aeruginosa (ATCC 15442)
Experimental: as §4, §5, §1, §2, §3, §6

[4] = system: Listeria monocytogenes biofilms; test: MBEC assay (MBEC Assay Biofilm Inoculator), anti-biofilm activity; assay type: cell-based
Experimental: (§7) The anti-biofilm activity of histone H5 against P. aeruginosa and L. monocytogenes biofilms was assessed using the MBEC Assay Biofilm Inoculator (formerly the Calgary Biofilm Device (CBD)).
(§8) The preparation of the bacterial suspension was the same as described in the determination of the MIC and MBC, except that the bacterial suspension was adjusted to 10^5 CFUs/ml in LB broth (BHI broth for L. monocytogenes), not PBS. Wells of an MBEC™ Assay Biofilm Inoculator (Innovotech, Edmonton, AB), which contains pegs projecting downwards from the lid that serve as a surface for biofilm formation, were inoculated with 150 µL of bacterial suspension. The plate was incubated for 24 hours at 37 °C (110 rpm) for Pseudomonas aeruginosa bacterial biofilms or for 72 hours at 22 °C (60 rpm) for Listeria monocytogenes. Following incubation, planktonic cells were rinsed away by switching the 96-peg lid to a sterile 96-well microplate with 200 μL of sterile PBS per well. Pegs with established biofilms were incubated with 200 μL of histone H5 (dissolved in sterile water, pH 7.4), in wells of another sterile 96-well microplate containing serially two-fold dilutions of H5. Solutions of gentamicin and kanamycin served as positive controls for P. aeruginosa and L. monocytogenes, respectively, whereas sterile water (pH 7.4) served as a negative control. The device was incubated for 2 hours at 37 °C, 110 rpm for P. aeruginosa and at 22 °C, 60 rpm for L. monocytogenes. The 96-peg lid was then rinsed twice as described above and placed on a sterile 96-well microplate with 200 μL of LB broth (P. aeruginosa) or BHI broth (L. monocytogenes) per well. The microplate was sonicated for 10 minutes (P. aeruginosa) or 30 minutes (L. monocytogenes) in order to dislodge the biofilms from the pegs, after which the peg-lid was replaced with a sterile, normal lid. This microplate was incubated in the EON microplate reader overnight at 37 °C (206 oscillations/min). The EON microplate spectrophotometer with Gen5 data analysis software (BioTek, Winooski, VT, USA) was used to monitor the growth of bacteria by measuring the optical density at 600 nm every 30 minutes for 24 hours (P. aeruginosa) or 48 hours (L. monocytogenes). The lowest histone H5 concentration without visible bacterial growth was designated as the minimum biofilm eradication concentration (MBEC). Additionally, a standard curve for the number of viable bacteria in the inoculum versus bacterial growth lag time was generated, since every microplate additionally contained wells with serially ten-fold diluted bacteria obtained from the uninhibited biofilm control (sterile H2O). Bacterial growth inhibition for each histone H5 concentration tested was determined from this standard curve.

[5] = system: Pseudomonas aeruginosa biofilms; test: as above; assay type: cell-based; conditions: 2 h treatment at 37 °C; for biofilm growth inhibition (log inhibition): versus untreated control, three independent trials, P < 0.04
Experimental: as §7, §8

[6] = broth microdilution, 3 h at 37 °C, then OD600 growth 18 h in LB broth, mean ± SD, n = 3
[7] = plated on LB agar, 37 °C 18 h, lowest concentration without a single colony, mean ± SD, n = 3
[8] = value in the figure, representative of three independent trials, each in triplicate

B1: histone H5: erythrocyte-specific linker histone purified from chicken erythrocytes, 190 amino acids (protein, UniProt P02259 2-190, looked up)
Histone H5: TESLVLSPAPAKPKRVKASRRSASHPTYSEMIAAAIRAEKSRGGSSRQSIQKYIKSHYKVGHNADLQIKLSIRRLLAAGVLKQTKGVGASGSFRLAKSDKAKRSPGKKKKAVRRSTSPKKAARPRKARSPAKKPKATARKARKKSRASPKKAKKPKTVKAKSRKASKAKKVKRSKPRAKSGARKSPKKK
Work on B1 yielded an MIC [1, 6] of 4.9 ± 1.5 µg/mL, an MBC [1, 7] of 4.9 ± 1.5 µg/mL and an MIC [1, 8] of 6.7 µg/mL. It also gave an MIC ([2]; MIC given in molar units) of 0.2 ± 0 µM, an MIC ([2]; 3 h at 37 °C, then OD600 growth 18 h in BHI broth, mean ± SD, n = 3) of 4 ± 0 µg/mL and an MBC ([2]; plated on BHI agar, 37 °C 18 h, lowest concentration without a single colony, mean ± SD, n = 3) of 4.4 ± 0.8 µg/mL. For the same molecule, the MIC ([3]; broth microdilution, MIC given in molar units) was 0.1 ± 0.1 µM, the MIC [3, 6] was 2.9 ± 1 µg/mL and the MBC [3, 7] was 2.9 ± 1 µg/mL. For the same molecule, the MIC [3, 8] was 4 µg/mL, the MBEC/MIC ratio ([4]; MBEC 19.1 ± 13.1 µg/mL versus planktonic MIC) was ~5 fold and the MBEC ([4]; biofilm grown 72 h at 22 °C on pegs, 2 h treatment at 22 °C, recovery growth OD600 48 h in BHI broth, mean ± SD, n = 3) was 19.1 ± 13.1 µg/mL. The “biofilm growth inhibition (log inhibition)” value ([5]; 32 µg/mL) was 0.7 ± 0.2 log inhibition, the “biofilm growth inhibition (log inhibition)” value ([5]; 64 µg/mL) was 1.6 ± 0.5 log inhibition and the “biofilm growth inhibition (log inhibition)” value ([5]; 128 µg/mL) was 2.3 ± 0.9 log inhibition. The MBEC ([5]; biofilm grown 24 h at 37 °C on pegs, recovery growth OD600 24 h in LB broth, highest concentration 128 µg/mL, n = 3) was >128 µg/mL.
